Measured values published in paper PMC4664405, “Mapping Soluble Guanylyl Cyclase and Protein Disulfide Isomerase Regions of Interaction” (PLoS ONE, 2015).

T1: soluble guanylyl cyclase (sGC) α subunit, of the purified reduced sGC (human, UniProt Q02108 1-690)
T1 construct: soluble guanylyl cyclase α subunit, human GCYA3; called full-length reduced sGC in the discussion; cross-linked lysines K5, K606, K672, K673, K685; Bought as the α/β heterodimer and reduced before incubation with PDI; also called GCYA3; source: bought: Axxora
T1 sequence (looked up): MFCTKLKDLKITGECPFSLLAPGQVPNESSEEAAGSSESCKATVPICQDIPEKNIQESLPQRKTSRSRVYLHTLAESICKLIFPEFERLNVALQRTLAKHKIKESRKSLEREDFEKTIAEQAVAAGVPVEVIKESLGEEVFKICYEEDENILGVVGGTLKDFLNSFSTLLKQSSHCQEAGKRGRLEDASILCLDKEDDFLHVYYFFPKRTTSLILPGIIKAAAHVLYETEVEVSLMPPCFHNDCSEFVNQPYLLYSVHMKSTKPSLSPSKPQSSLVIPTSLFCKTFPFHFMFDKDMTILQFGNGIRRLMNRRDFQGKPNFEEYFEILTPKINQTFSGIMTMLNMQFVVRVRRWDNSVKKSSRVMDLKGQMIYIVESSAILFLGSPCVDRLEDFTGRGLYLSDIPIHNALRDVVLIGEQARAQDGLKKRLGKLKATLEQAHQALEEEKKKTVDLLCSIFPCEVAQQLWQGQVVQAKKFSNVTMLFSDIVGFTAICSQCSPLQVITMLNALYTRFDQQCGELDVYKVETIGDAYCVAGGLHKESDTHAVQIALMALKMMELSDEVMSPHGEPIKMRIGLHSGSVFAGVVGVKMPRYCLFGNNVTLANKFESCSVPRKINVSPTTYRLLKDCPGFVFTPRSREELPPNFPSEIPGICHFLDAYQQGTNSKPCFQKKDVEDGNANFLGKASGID

B1: soluble guanylyl cyclase (sGC) β subunit, of the purified reduced sGC (enzyme, human, UniProt Q02153 1-619, looked up)
chain: MYGFVNHALELLVIRNYGPEVWEDIKKEAQLDEEGQFLVRIIYDDSKTYDLVAAASKVLNLNAGEILQMFGKMFFVFCQESGYDTILRVLGSNVREFLQNLDALHDHLATIYPGMRAPSFRCTDAEKGKGLILHYYSEREGLQDIVIGIIKTVAQQIHGTEIDMKVIQQRNEECDHTQFLIEEKESKEEDFYEDLDRFEENGTQESRISPYTFCKAFPFHIIFDRDLVVTQCGNAIYRVLPQLQPGNCSLLSVFSLVRPHIDISFHGILSHINTVFVLRSKEGLLDVEKLECEDELTGTEISCLRLKGQMIYLPEADSILFLCSPSVMNLDDLTRRGLYLSDIPLHDATRDLVLLGEQFREEYKLTQELEILTDRLQLTLRALEDEKKKTDTLLYSVLPPSVANELRHKRPVPAKRYDNVTILFSGIVGFNAFCSKHASGEGAMKIVNLLNDLYTRFDTLTDSRKNPFVYKVETVGDKYMTVSGLPEPCIHHARSICHLALDMMEIAGQVQVDGESVQITIGIHTGEVVTGVIGQRMPRYCLFGNTVNLTSRTETTGEKGKINVSEYTYRCLMSPENSDPQFHLEHRGPVSMKGKKEPMQVWFLSRKNTGTEETKQDDD
notes: soluble guanylyl cyclase β subunit, human GCYB1; called full-length reduced sGC in the discussion; cross-linked lysines K127, K187, K559, K615; Bought as the α/β heterodimer and reduced before incubation with PDI; also called GCYB1; source: bought: Axxora
B2: protein disulfide isomerase (PDI), oxidized, purified (enzyme)
chain: not shown
modifications: oxidized: each active site Cys-x-x-Cys forms a disulfide bond
notes: protein disulfide isomerase, human P4HB; called full-length oxidized PDI in the discussion; cross-linked lysines K370 and K409; also called oxidized PDI; oxPDI; source: PDI in pTRC-HisA, purified as described previously [11]

Assays:
[1] = target: T1, soluble guanylyl cyclase (sGC) α …; test: cross-linking; reduced sGC and oxidized PDI incubated, 50 molar excess of BS3 for 30 minutes at room temperature (22°C) in the dark, alkylated with 40 mM iodoacetamide, non-reducing 7.5% TGX gel, bands digested with trypsin, RPLC-MS/MS, MassMatrix search; conditions: both partners purified
[2] = target: B1; test: as above; conditions: both partners purified

Row | binding result [1] | binding result [2] | Binder
1 | binds | – | B1
2 | binds | binds | B2
